Reference: patent US20140147456A1 (AFFIRIS, published 2014)

T1: recombinantly expressed human CETP N-terminally fused to GST (human, UniProt P11597 18-493, limits assumed)
T1 construct: coated antigen of the protein ELISA; also called GST-CETP; CETP protein; not shown: GST (Glutathione-S-transferase) tag at the N-terminus
T1 sequence (looked up): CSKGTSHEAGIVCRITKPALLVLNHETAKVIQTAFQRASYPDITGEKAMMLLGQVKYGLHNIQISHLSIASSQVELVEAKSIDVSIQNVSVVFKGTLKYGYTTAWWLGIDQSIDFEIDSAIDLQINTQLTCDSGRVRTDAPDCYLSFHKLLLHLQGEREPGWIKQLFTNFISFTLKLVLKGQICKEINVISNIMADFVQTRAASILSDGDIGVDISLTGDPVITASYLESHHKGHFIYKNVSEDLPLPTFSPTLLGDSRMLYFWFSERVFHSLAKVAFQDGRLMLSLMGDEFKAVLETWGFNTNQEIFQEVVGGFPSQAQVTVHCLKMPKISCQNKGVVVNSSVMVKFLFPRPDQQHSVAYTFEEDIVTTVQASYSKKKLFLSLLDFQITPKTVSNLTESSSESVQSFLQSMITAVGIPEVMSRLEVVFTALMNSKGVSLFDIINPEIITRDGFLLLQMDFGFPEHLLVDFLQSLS


Target: T1, recombinantly expressed human CETP …
Assay: human CETP protein ELISA, coated protein, antibody titrated

Binder | binding result
monoclonal antibody BTS4-1 (antibody, V domains shown) VH: QIQLVQSGPELKKPGETVKISCKASGYTFTDCSMHWVKQAPGQGLKWMGWINTKTGEPTYADDFKGRFAFSLETSASTAYLQINILKNEDSATYFCAAHSGKDYAIDYWGQGTSVTVSS VL: DVLMTQTPLSLPVSLGDQASISCRSSQSIVHRNGNTYLEWYLQKPGQSPKLLIYKVSNRFSGVPDRFSGSGSGTDFTLRISRVEAQDLGVYFCFQGSRVPPTFGGGTKLEIK | binds
monoclonal antibody CJ7-6-B7 (antibody, V domains shown) VH: NVQLQESGPGLVKPSQSLSLTCTVTGHSITSDYAWNWIRQFPGNKLEWMGYITNSGSTTYNPSLKSRISITRDTSKNQFFLQLNSVTTEDTATYYCTRGGPYWGQGTLVTVSA VL: DIVMTQSQKFMSTSVGDRVSITCKASQNVGTAVVWYQQKPGQSPKLLIYSASNRYTGVPDRFTGSGSGTDFTLTITNMQSEDLADYFCQQYSSYPLTFGAGTKLELK | binds

Next, values leading:

binding result | Binder
binds | monoclonal antibody 5/C7-6-C8 (antibody, V domains shown) VH: EVQLVESGGGLVEPGGSLKLSCVASGFTFSTYAMSWFRLTPERRLEWVAAISNGGSQNSYPDSVKGRFTVSRDNAKNTLYLQMSSLRSEDTAMYYCSRNGNYFDYWGQGTTLTVSS VL: QIVLTQSPAIMSASPGEKVTMTCSASSSISYMHWYQQKPGTSPKRWIFDTSKLASGVPARFSGSGSGTSYSLTISSMEAEDAATYYCHQRSSYPTFGSGTKLEIK
binds | monoclonal antibody 12/B3-5-B11 (antibody, V domains shown) VH: DVQLQESGPGLVKPSQSLSLTCTVTGYSITSDYAWNWIRQFPGNKLEWMGYISYSGTTTYNPSLKSRISITRHTSKNQFFLQLNSVTTEDSATYYCTRLGYYFDYWGQGTTLTVSS VL: DIVMTQSPASLAMSVGQKVTMNCKSSQSLLSSKNQKNFLAWYQQKPGQSPKVLVYFASTRASGVPDRFIGSGSGTDFTLTISSVQAEDLADYFCQQQYNTPLTFGAGTKLELK
